Consider 74 sequences from the supplement of paper PMC12636428.

The test system of this series is Saccharomyces cerevisiae. Nature of the series: transcriptional activation domain activity (GFP:mCherry ratio, weighted mean of sorted bins, harmonized to initial dataset scale) (arbitrary fluorescence ratio units); higher = stronger transcriptional activation. Conditions: beta-estradiol 1 µM; induction time 4 h. The essentials:
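The activation activity of each tile is the read-weighted mean of bin median fluorescence, averaged across its barcodes and mapped linearly onto the scale of the initial dataset. Tiles were fused to an estradiol-inducible synthetic transcription factor, barcoded, and integrated at URA3 in yeast diploids carrying a GFP reporter. Induction used 1 uM beta-estradiol in SC for 4 hours at 30 °C, after which cells were sorted into 8 GFP:mCherry bins, and any tile with fewer than 50 reads was dropped.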

For the sequence “MRYGHLYTWIIILKYSLVLHQVFSLYLCIIFLAIIVFLIFVYWLMLEIFLVLF”, the “transcriptional activation domain activity” value was 80500.
Then “MRYRPSEDLGKKLLLLFIYILFRGKLVVNPFHFFSSFLSFFFFFFFVFFALLL”, with 35900; and “MRYRVNYMSTQGIHYSPFLPWIINIFKPNIMLICLFSFLPYFILFIMKSMLVL”, with 74600; and “MSAAEDNKPVEAVEKVEEAPQAEEVPKVEEAPAQEEAGATASEKKDANILKTT”, with 25700.
In the case of “MSAATATKPPATGTTPRREATSRASAPSPAAASRTPARSSTPTATASATTSSP”, the “transcriptional activation domain activity” value stood at 18000.
The value for “MSADYAIGQFRYLAKLLLVHGHWNTYRIGVLHQVFFYKNLIWTGCLLIFQIFT” was 45800.
Take “MSAFSGEDAPSPEGLDRKRKRQRTALSCTECKRRKIKCDRSQPCSSCIRRKVP”: the “transcriptional activation domain activity” value came out at 42300.
Regarding “MSAPPEEVASTQSAQPTTEPALIGEPVKRGRGRPKGSKNKAKPSTAATATGEA”, the “transcriptional activation domain activity” value came out at 34800.
Then “MSAPVEEKMAALNVNDKKPAAPKADKKAKKSKGTEGEYPLEFSPAPEYLQHRI”, with 30300.
Then “MSASPPTGSGGTDERQRQRVTRACEPCRRKKIRCDGRKPCSACADAQAGNGCA”, with 34300; and “MSATEATAVPAPAEEVKVVETPAVDPVPEAPAAEESAPATEVKKEERPKSPSL”, with 54600.
For the sequence “MSAVCMFLRNRALFIHIFSVALTLFHVGAFQLLHCNCAYGFLVWGFLGCSLSL”, the “transcriptional activation domain activity” value was found to be 78500.
Regarding “MSCLDWNVFVFFFYLSILIFRLITHHYLSVFDLFFLYPFFLFLFTFPPTSFLL”, the “transcriptional activation domain activity” value was determined as 49500.
For the sequence “MSDAAAPAPAPVEEVKPAEAAPEVVPAPRPLRRSPRPRRLRPLRPPPPSAAAE”, the “transcriptional activation domain activity” value was found to be 28400.
Take “MSDATPTSARKAMAPRRSHRKSRLGCANCKRRRIKCDEQKPACSNCVKHDIRC”: the “transcriptional activation domain activity” value came to 24400.
On to “MSDDLGASPTQRPLRKSHRKSRKGCLDCRRRRVKCGEERPSCLVCVRRNVRCE”, for which the “transcriptional activation domain activity” value was 49200.
For the sequence “MSDDSGASPTQRSVRKPHRKSRNGCLDCRRRRVKCGEEHPSCRVCVRRNVRCE”, the “transcriptional activation domain activity” value stood at 49800.
For “MSDHRIIIVLAFFLIFFFNPPPLPLPTYPYQYSLLTYSLFFEPFFFSFPFFFS”, the “transcriptional activation domain activity” value stood at 63100.
On to “MSDLETPKRRRPGVRPRASQACRACAAAKVRCDNLQSCHRCQNKRVACVRGSH”, for which the “transcriptional activation domain activity” value worked out at 34100.
Take “MSDLPLFFYFYFITVCITSWRFTCILAPGLFFSFYFFLCFFCLFSLLSLHDLM”: the “transcriptional activation domain activity” value turned out to be 20700.
Then “MSDTKSARSGDKERDKRRREKESDSSSKDGRRGSHSHSKTPEEPKEKGHKRKH”, with 13000; and “MSDWEEKWSKSRNRPYYFNKTTNESVWDKPDGFDGPAAKPPGSEGKVRASHLL”, with 38300.
On to “MSEEEGPAKSTSNKKRRLQGACDECRKRKVKCDSANMPGNQCSNCNVSHIECT”, for which the “transcriptional activation domain activity” value worked out at 42300.
With “MSENTAIENVTVTLEKTKLDAPVTNEAEVAHAASAAEGRRLYIGNLAYSTTEE”, the “transcriptional activation domain activity” value is 16900.
The value for “MSENTAVENVTATLEKTKLEAPVTNEAEVAHAASAAEGRRLYIGNLAYSTTEE” was 33100; that for “MSENVDPPSPHDKSEAPTKRGRGRPKGSKNKSAAAGAVEQEDPAPVIPRKRRL” was 36300; that for “MSEPPRKRAKLACVTCNARRVKCDVTDRHPCSNCAAGNVECETRESRRGKHIR” was 24000.
On to “MSEPPRKRAKLACVTCNARRVKCDVTDRHPCTNCAAGNVECETRESRRGKHVR”, for which the “transcriptional activation domain activity” value was 14300.
Regarding “MSEPPRKRAKLACVTCNARRVKCDVTDRQPCTNCITGNVHCETRESKRGKHPR”, the “transcriptional activation domain activity” value stood at 20300.
The value for “MSEPPRKRAKLACVTCNARRVKCDVTERQPCGNCVAGKILCETRESKRGKHPR” was 33800; that for “MSEPPRKRAKLACVTCNARRVKCDVTERQPCSNCIAGNALCETRESKRGKHPR” was 15300.
Consider “MSEPPRKRAKLACVTCNARRVKCDVTERRPCGNCIAGNVECETRESKRGKHPR”, for which the “transcriptional activation domain activity” value amounted to 32700.
In the case of “MSEPPRKRAKLACVTCNSRRVKCDVTDRQPCTNCITANVHCETRESKRGKHPR”, the “transcriptional activation domain activity” value was 40500.
The value for “MSEREREHRGGRQDRLTGRSRSRSVRRHEKGDKGADDGRQARERHRSRSPARK” was 27400.
As for “MSETNAPAASAPDALAEGIAKLDVGAEGAQASEAAAPQANGAGEAAPAAAEAS”, the “transcriptional activation domain activity” value was found to be 23400.
Consider “MSFFCLFHQLFDISCIFIYLILLENHFSLLCYLLLIFNFNCYFVIFSFLVLNF”, for which the “transcriptional activation domain activity” value is 54800.
As for “MSFFFFFIRYFPWLFDFWLLAFVFYCLLIPRLNIFFLSFSCFNFLVFSLLLVG”, the “transcriptional activation domain activity” value came out at 56000.
For the sequence “MSFFLFFVSCLLLFFVFVLFLFFSFRSFLSSVPFPFRFCFLFLFALSLFFLLV”, the “transcriptional activation domain activity” value is 41400.
“MSFFLSFFVLFCFYFYFTPCLFFSSHLLTFFFFSDSPLFVFYFFYFFFSSFVY”: the “transcriptional activation domain activity” value is 67700.
With “MSFFLYYFFYLLQGVIIHIIYTYISLFIPLHSFIIISFIFFFFIIFTLFFLLF”, the “transcriptional activation domain activity” value was 70800.
As to “MSFFWDTSLCACVTRIREMSFWEFLVGLAFFFFFLVKGSCICVACFFFFFFWS”, the “transcriptional activation domain activity” value turned out to be 34200.
Then “MSFKFFFCLLIPSFSLFKITYAWSYLMILEVVFSPFFSQVVVFVLFILHHFYH”, with 53000; and “MSFKKDEETGVSSFYQDKTSVIQEARVFNETPISPRKCRILLTKVIYLLYSGE”, with 44100.
Turning to “MSFLGLSFFAYLLGVGWILLFCLSFGLPQPLSFITWDCLTRGGFFFLLYFFCF”, the “transcriptional activation domain activity” value amounted to 44500.
For the sequence “MSFLHCFFHVRYFPSNLFVIVIMFLLLFVHSFARGWRMEYAVSFLFNSLVLMY”, the “transcriptional activation domain activity” value was 61700.
On to “MSFLLCGFCITFFFRFFLLSLFWMIRREQGICVSRLMFFFSFFFLSFNIIIFA”, for which the “transcriptional activation domain activity” value stood at 52300.
Then “MSFLYFIRCFVSFHLELLDCYYMMIECLFIFLIFCITICLPFICLYSLLVECF”, with 49800; and “MSFQPLFYLLGLGVLFPLLFLLLSPPLFPSMAPFFLLQILLLMLTTELFFVPL”, with 39700; and “MSFRFPTLFFFSLTLFLVSPFWFYLLFSVFFFLISLVFLESHFFCLGSINTLY”, with 39800.
For “MSFVDLHGIWGFFLPFIFSVINWYLNYVLILTLLFFLCHVRIWVLYLVNIYRE”, the “transcriptional activation domain activity” value came out at 55000.
“MSFYFNFYFPICLFFIFIFIVYFLFFIFYLFYFVVYFFLFLLAFIFVFFSVVY”: the “transcriptional activation domain activity” value was 41700.
Take “MSGFVRLLFTFDFRNVLVDILVLHIPLYLFPLFVLSEEFLLLFSFCLFVFLSF”: the “transcriptional activation domain activity” value is 31000.
For “MSGIFSLSHLLVFRFFFFSIMRFLLVFLYFLFLTITIPHSLSLSLHLFHLFVS”, the “transcriptional activation domain activity” value was 52600.
On to “MSGQLPAGAPRASPADASPTGPRAPTSSRPACLSCHTHKKRCVWKSAAPGTPC”, for which the “transcriptional activation domain activity” value worked out at 69400.
Regarding “MSGTNNSAAPPSYFDKAKDAMHSVVGNLTGHDDKETSSKPYVPTVSSACTAVV”, the “transcriptional activation domain activity” value worked out at 61800.
Then “MSGVGKLYRMGCWHGSHLPFIYFGHFILPFLLCLRPILSSVFFIYFFHLLCFF”, with 47000; and “MSHLLSSFLYDSLSFCFILLFGFDVILFPLFKYLWTTSSFYMFWMPDHLTLAV”, with 73900.
Turning to “MSHPYRGERVHLQVGQNIWIVALIVLVQIFSTVRSNPGCSLLVSMTAKFWCPR”, the “transcriptional activation domain activity” value worked out at 63800.
For “MSHSASTSASTSTAAGEPSAKRMRLGTRSCAECRRRKVRCIVPPGARVCEGCS”, the “transcriptional activation domain activity” value worked out at 75900.
In the case of “MSIAWLCYSSALCQGLRNTIFPSLNIFLMDPLSEWTARQWLFYLVWLLTIVWK”, the “transcriptional activation domain activity” value is 52800.
Regarding “MSIEKKFDDDSPIDIEPSRSYDLDTRRRAALAEIDNASFSRFHVKTVIVAGIG”, the “transcriptional activation domain activity” value stood at 64400.
With “MSIFFSVIPPFFSFLPLMLFFFFFLGCLGNGSTFFVSTLLWMGGSIGLLSFYS”, the “transcriptional activation domain activity” value was 55600.
In the case of “MSIPPRLFYITFLLCFFNLLAYFHSLLFLSFNFPLQYLFTVNSVMHLVVSLPG”, the “transcriptional activation domain activity” value turned out to be 53900.
For “MSIVLLCSHIFYTLLGSRRFIAACFFWSLSVPSHLSHICLSCIFLLLSFFLLC”, the “transcriptional activation domain activity” value was 53900.
Turning to “MSIVPVNSTYTLCILLMFVMLETTLYDPPLCGCMARLVTMFYGFFYGFFIYLI”, the “transcriptional activation domain activity” value was found to be 61000.
In the case of “MSKRAAEGSDSAGSSKKVKQDDSASTVFQKDEEGNLYVDLSSMKRATVSVFRG”, the “transcriptional activation domain activity” value came out at 60400.
The value for “MSKRLSFFFSGYLVLCGFSGVAFLFYFSLFNLVYYYPFLLLFNGFGGICIFLV” was 56800.
With “MSLAHGHLFNRLQAVGPWDSLCCMGCDLSTLYLAALHSPWRVSWWRFLILGLL”, the “transcriptional activation domain activity” value came to 58200.
Then “MSLASLAAQRSNCMKRAVGCVLVGRERRVISTGYNGTPRGIRNCGEGGCARCN”, with 44500.
Turning to “MSLASLAAQRSNCMKRRVGCVVVRDKRVVSTGYNGTPRGLRNCGEGGCGRCNE”, the “transcriptional activation domain activity” value turned out to be 21100.
As for “MSLAYLILGFPIPPFLPYFLDVVLSPLSRFSPLPLVFPFVLWCPTSLPLFTSF”, the “transcriptional activation domain activity” value is 51400.
Then “MSLFFLFFFFFSSFFSFFLLLPLCSVMFMPPVLSLYGVTMGFLPPPPFFFFLF”, with 37900; and “MSLFFLLFPHVFAFILFLLSSFYSLSPIHSVFYPSFSLFPLSSLFYLTFPFSL”, with 59400; and “MSLFLHSIIGGWLLHLFSLLCFLLFCFSAFCFSTTLFVTRRSGFVVGLWSLCL”, with 52000.
